These results are taken from the supplement of paper PMC11780869.

This data set has as its system Bacillus subtilis. Kind of data set: cleaved RNA product abundance (RNA/gDNA barcode ratio) relative to median wild-type variant (ratio to wild type); higher = more accumulation of the downstream cleavage product. An outline of the steps:
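Oligos with a 9% error rate were used to build barcoded, mutagenized RNase Y cleavage-site windows within truncated aprE or tetM reporter mRNAs, which were integrated into the B. subtilis chromosome. Cultures were grown in LB at 37°C between OD600 0.0003 and 0.3. Cleaved RNA was gel-selected, reverse transcribed and barcode-sequenced, as were genomic DNA barcodes, and UMIs were collapsed. Cleaved product abundance is the scaled RNA:gDNA barcode ratio, with the median construct carrying the unmutated site as reference.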

[1] abbreviates: experiment (reporter, strain, medium): exp 4a: truncated aprE reporter, strain BJT201 with 2% xylose (RNase J1 expressed), cleavage site: cggR-gapA (positions -7 to +36 mutated).
[2] abbreviates: experiment (reporter, strain, medium): exp 8a: truncated aprE reporter, strain BJT201 with 2% xylose (RNase J1 expressed), cleavage site: glnRA (positions -5 to +31 mutated).
The mark [3] stands for this setting: experiment (reporter, strain, medium): exp 2b: truncated aprE reporter, strain BJT200, cleavage site: cggR-gapA (positions -7 to +36 mutated).

As to “ACAGACGAAGGAGCCGCAAAGAAGTTATTATGGGATGAATAAACCCTCAATATAAATATCTCTCACTTATTTAAA”, the “cleaved RNA product abundance” value under setting [1] is 0.21.

For “CGACATGTCCCGCTTCTTTCATTAATCCGTTAGCAACTGTTTTTCTCTATACATTTACCTTTTAAGAGGAGGAAT”, the “cleaved RNA product abundance” value under setting [2] stood at 0.337.

“ACAGACGAAGGAGCCGCAAAGAAGTTATTAAGGTATGAATAATCCATCAATATAAATATCTCTCACTTATTTAAA”: the “cleaved RNA product abundance” value reads like this: under setting [3], 0.125; under setting [1], 0.145.

As to “ACAGACGAAGGAGCCGCAAAGTAGTTATTAAGGGATGAATAATCTCTCAATATAAATATCTCTCACTTATTTAAA”, under setting [1], the “cleaved RNA product abundance” value is 0.802.

With “ACAGACGAAGGAGCCGCAAATGAGTTATTAAAGGATGAATAATCCCTCAATATAAATATCTCTCACTTATTTAAA”, the “cleaved RNA product abundance” value under setting [3] stood at 0.181.

Regarding “ACAGACGAAGGAGCCGCAAAGAAGTTATTAAGGCATGAATAATCCCTAAATATAAATATCTCTCACTTATTTAAA”, the “cleaved RNA product abundance” value reads like this: under setting [3], 0.114; under setting [1], 0.151.

“CGACATGTCCCGCTTCTTTCATTAATCCGTCAGCAACTTTTTTGCTATATACATTTACCTTTTAAGAGGAGGAAT”: the “cleaved RNA product abundance” value under setting [2] is 0.621.

Regarding “CGACATGTCCCGCTTCTTTCATTAATCCGTTAGCAACTGTTTTGCTATATACATTTAGCATTTAAGAGGAGGAAT”, under setting [2], the “cleaved RNA product abundance” value is 0.755.

As for “CGACATGTCCCGCTTCTTTCATTAATTCGTTAGCAACTGTTTTGTTATATACATTTACCTTTTAAGAGGAGGAAT”, under setting [2], the “cleaved RNA product abundance” value came out at 0.602.

On to “ACAGACGAAGGAGCCGCAAAGAAGTTATTAAGGGATGAACAATCCCTCAATATATATATCTCTCACTTATTTAAA”, for which the “cleaved RNA product abundance” value under setting [1] is 0.441.

Regarding “ACAGACGAAGGAGCCGCAAATAAGTTATTAAGGGATCAATAATCCCTCAATATAAATATCTCTCACTTATTTAAA”, the “cleaved RNA product abundance” value is 0.721 under setting [1] and 0.865 (experiment (reporter, strain, medium): exp 6: tetM reporter, strain 168, cleavage site: cggR-gapA (positions -7 to +36 mutated)).

Take “ACAGACGAAGGAGCCGCAAAGAAGTTATTAAGGGTTGAATAATCCGTCAATATAAATATCTCTCACTTATTTAAA”: the “cleaved RNA product abundance” value under setting [1] is 0.187.

Turning to “ACAGACGAAGGAGCCGCAAAGAAGTTATTAAGGGATGAATAATCCCTCAAAATAAATTTCTCTCACTTATTTAAA”, the “cleaved RNA product abundance” value under setting [1] worked out at 0.285.

As for “ACAGACGAAGGAGCCGCAAAGAAATTATTAAGGGGTGAATAATCCCTCAATATAAATATCTCTCACTTATTTAAA”, the “cleaved RNA product abundance” value amounted to 0.541 under setting [3] and 0.734 under setting [1].

On to “CGACATGTCCCGCTTCTTTCATTAATCCATTAGCAACTGTTTTGCTATATACATTTTCCTTTTAAGAGGAGGAAT”, for which the “cleaved RNA product abundance” value under setting [2] came out at 0.292.

For “ACAGACGAAGGAGCCGCAAAGAAGTTATTAAGGGATGAAATATCCCTCAATATAAATATCTCTCACTTATTTAAA”, the “cleaved RNA product abundance” value under setting [1] amounted to 0.586.

For the sequence “CGACATGTCCCGCTTCTTTCATTAATCCGTTAGCAACTATTTTGCTATATACATTTACCTTTTAAGAGGAGGAAT”, under setting [2], the “cleaved RNA product abundance” value was 1.34.

Turning to “ACAGACGAAGGAGCCGCAAAGAAGTTATGAAGAGATGAATAATCCCTCAATATAAATATCTCTCACTTATTTAAA”, under setting [1], the “cleaved RNA product abundance” value worked out at 0.0998.

As to “CGACATGTCCCGCTTCTTTCATTAATCCGATAGCAACTGTTTTGTTATATACATTTACCTTTTAAGAGGAGGAAT”, the “cleaved RNA product abundance” value under setting [2] was found to be 0.378.

Consider “ACAGACGAAGGAGCCGCAAAGAAGTTATTAAAGAATGAATAATACCTCAATATAAATATCTCTCACTTATTTAAA”, for which the “cleaved RNA product abundance” value under setting [1] stood at 0.159.

As to “ACAGACGAAGGAGCCGCAAATTAGTTATTAAGGGATGAAAAATCCCTCAATATAAATATCTCTCACTTATTTAAA”, the “cleaved RNA product abundance” value under setting [1] was found to be 0.655.

Turning to “CGACATGTCCCGCTTCTTTCATTAATCCTTTAGCAACTGTTTTGCTATATACATTTACATTTTAAGAGGAGGAAT”, the “cleaved RNA product abundance” value under setting [2] worked out at 0.783.

For “ACAGACGAAGGAGCCGCAAAGAAGTTATTAAGGGATGAATAATCCTTCAATATACATATCTCTCACTTATTTAAA”, the “cleaved RNA product abundance” value under setting [3] was 0.334 and the “cleaved RNA product abundance” value under setting [1] worked out at 0.785.

Turning to “ACAGACGAAGGAGCCGCAAAGAAGTTATTATGGAATGAATAATCCCTCAATATAAATATCTCTCACTTATTTAAA”, the “cleaved RNA product abundance” value under setting [1] is 0.105.

Consider “ACAGACGAAGGAGCCGCAAAGAAGTTATTAAGGGATGAATAAACCTTCAATATAAATATCTCTCACTTATTTAAA”, for which the “cleaved RNA product abundance” value is, setting by setting: under setting [3], 0.096; under setting [1], 0.267.

With “ACAGACGAAGGAGCCGCAAGAAGTTATTAGGGGATGAATAATCCCTCAATATAAATATCTCTCACTTATTTAAAG”, under setting [1], the “cleaved RNA product abundance” value was found to be 0.817.

As to “ACAGACGAAGGAGCCGCATAGAAGTTATTAAGGTATGAATAATCCCTCAATATAAATATCTCTCACTTATTTAAA”, under setting [1], the “cleaved RNA product abundance” value is 0.159.

In the case of “CGACATGTCCCGCTTCTTTCATTAATCCTTTAGCAACTGTTTTGCTATATACATTTCCCTTTTAAGAGGAGGAAT”, under setting [2], the “cleaved RNA product abundance” value stood at 0.343.

In the case of “ACAGACGAAGGAGCCGCAAAGAAGTTAAAAAGGGATGAATAATCCCTCAATATAAATATCTCTCACTTATTTAAA”, the “cleaved RNA product abundance” value runs as follows: under setting [3], 0.268; under setting [1], 0.392.

For “ACAGACGAAGGAGCCGCAACGAAGTAATTAAGGGATGAATAATCCCTCAATATAAATATCTCTCACTTATTTAAA”, the “cleaved RNA product abundance” value under setting [1] was found to be 0.347.

For “ACAGACGAAGGAGCCGCAAAGAAGTTATTAAGGAATTATTAATCCCTCAATATAAATATCTCTCACTTATTTAAA”, the “cleaved RNA product abundance” value under setting [1] amounted to 0.203.

“CGACATGTCCCGCTTCTTTCATTATTCCGTTAGCATCTGTTTTGCTATATACATTTACCTTTTAAGAGGAGGAAT”: the “cleaved RNA product abundance” value under setting [2] amounted to 1.34.

Regarding “ACAGACGAAGGAGCCGCAAAGAAGTTATTAAGAGATGAATAAGCCCTCAATATAAATATCTCTCACTTATTTAAA”, the “cleaved RNA product abundance” value is 0.1 under setting [3] and 0.0929 under setting [1].

With “ACAGACGAAGGAGCCGCAAAGAAGTTATAAAGGGATGAATAATCCCTCCATATAAATATCTCTCACTTATTTAAA”, the “cleaved RNA product abundance” value under setting [1] is 0.266.

On to “ACAGACGAAGGAGCCGCAAAGAAGTTATTAAAGGATGAATAATCCGTCAATATAAATATCTCTCACTTATTTAAA”, for which the “cleaved RNA product abundance” value came to 0.16 under setting [3] and 0.161 under setting [1].

Regarding “ACAGACGAAGGAGCCGCAAAGAAGTTATTAACGGATGAAGAATCCCTCAATATAAATATCTCTCACTTATTTAAA”, the “cleaved RNA product abundance” value under setting [1] was 0.17.

On to “ACAGACGAAGGAGCCGCAAAGAAGTTATAAAGGGATGAATAATCCCTCAATATAAATATATCTCACTTATTTAAA”, for which the “cleaved RNA product abundance” value under setting [1] turned out to be 0.419.

For “CGACATGTCCCGCTTCTTTCATTAATCCGTGAGCAACTATTTTGCTATATACATTTACCTTTTAAGAGGAGGAAT”, under setting [2], the “cleaved RNA product abundance” value amounted to 0.988.

With “ACAGACGAAGGAGCCGCAAAGAAGTTATTAAGGGATGAATAATCCATCAATAAAAATATCTCTCACTTATTTAAA”, the “cleaved RNA product abundance” value reads like this: under setting [3], 0.11; under setting [1], 0.107.

“ACAGACGAAGGAGCCGCAAAGAAGTTACAAAGGGATGAATAATCCCACAATATAAATATCTCTCACTTATTTAAA”: under setting [1], the “cleaved RNA product abundance” value turned out to be 0.157.

Turning to “CGACATGTCCCGCTTCTTTCATTAATCCGTTAGCAACTGTTTTGTTATATACATTTAACTTTTAAGAGGAGGAAT”, the “cleaved RNA product abundance” value under setting [2] stood at 0.617.

For the sequence “ACAGACGAAGGAGCCGCAAAGACATTATTAAGGGATGAATAATCCCTCAATATAAATATCTCTCACTTATTTAAA”, the “cleaved RNA product abundance” value under setting [1] amounted to 0.85.

Turning to “ACAGACGAAGGAGCCGCAAAGAATTTATTAAGGGATGAATTATCCCTCAATATAAATATCTCTCACTTATTTAAA”, the “cleaved RNA product abundance” value runs as follows: under setting [3], 0.531; under setting [1], 0.268.

Turning to “ACAGACGAAGGAGCCGCAAAGAAGTTATTAAGGGATGAATAACTCCTCAATATAAATATCTCTCACTTATTTAAA”, the “cleaved RNA product abundance” value under setting [3] came out at 0.14 and the “cleaved RNA product abundance” value under setting [1] stood at 0.149.

For the sequence “CGACATGTCCCGCTTCTTTCATTAATCCGTTAGCAACTGTTGTGCTAAATACATTTACCTTTTAAGAGGAGGAAT”, under setting [2], the “cleaved RNA product abundance” value is 0.266.

With “ACAGACGAAGGAGCCGCAAAGAAGTGATAAAGGGATGAATAATCCCTCAATATAAATATCTCTCACTTATTTAAA”, under setting [1], the “cleaved RNA product abundance” value is 0.223.

Regarding “ACAGACGAAGGAGCCGCAAAGAAGTTATTAAGTGATGACTAATCCCTCAATATAAATATCTCTCACTTATTTAAA”, the “cleaved RNA product abundance” value by setting is: under setting [3], 0.081; under setting [1], 0.111.

With “ACAGACGAAGGAGCCGCAAAGAACTTATTAAGGGATGAACAATCCCTCAATATAAATATCTCTCACTTATTTAAA”, under setting [1], the “cleaved RNA product abundance” value is 0.344.

On to “ACAGACGAAGGAGCCGCAAAGAAGTTATTAAGGGACGAATAATCCCTAAATATAAATATCTCTCACTTATTTAAA”, for which the “cleaved RNA product abundance” value under setting [1] was 0.287.

As for “ACAGACGAAGGAGCCGCAAAGACGTTATTAAGGAATGAATAATCCCTCAATATAAATATCTCTCACTTATTTAAA”, the “cleaved RNA product abundance” value under setting [1] came to 0.14.

In the case of “ACAGACGAAGGAGCCGCAAAGAAGTTATTAAGGGATGAATAATCCTTCCATATAAATATCTCTCACTTATTTAAA”, the “cleaved RNA product abundance” value under setting [3] came to 0.19.

Consider “ACAGACGAAGGAGCCGCAAAGAAGTTATTAAGGGATGAATAATGCCTCAATATAAAAATCTCTCACTTATTTAAA”, for which the “cleaved RNA product abundance” value stood at 0.15 under setting [3] and 0.159 under setting [1].

As for “CGACATGTCCCGCTTCTTTCATTAATCCCTTAGCAACTGTTTTGCTATATACACTTAACTTTTAAGAGGAGGAAT”, the “cleaved RNA product abundance” value under setting [2] came out at 0.255.

As to “CGACATGTCCCGCTTCTTTCATTAATCCGTTAGCGACTGTTTTGCTATATACATTGACCTTTTAAGAGGAGGAAT”, under setting [2], the “cleaved RNA product abundance” value was found to be 0.274.

As for “ACAGACGAAGGAGCCGCAAAGAAATTATCAAGGGATGAATAATCCCTCAATATAAATATCTCTCACTTATTTAAA”, under setting [1], the “cleaved RNA product abundance” value is 0.475.
